Results reported in patent US20090062190A1, “Transcriptional Regulation of Cytokines by LITAF and STAT (6)(B)” (priority 2005, published 2009).

B1: LITAF: LPS-induced TNF-α factor, SEQ ID NO: 1; full length DNA transfected for overexpression (protein, listed as Homo sapiens)
chain: MSVPGPYQAATGPSSAPSAPPSYEETVAVNSYYPTPPAPMPGPTTGLVTGPDGKGMNPPSYYTQPAPIPNNNPITVQTVYVQHPITFLDRPIQMCCPSCNKMIVSQLSYNAGALTWLSCGSLCLLGVHSGLLLHPLLRGCPAGRGPLLSQLQSSPGHLQAFVGLSQTQREPGAAGSPFHLSSSFTPGGGSALVVSPLQGAHLHVFFWGEYVAKLTNLQTPEIAAWSRA
B2: STAT6(B): novel protein, Signal transducer and activator of transcription, SEQ ID NO: 2; full length DNA transfected (protein, listed as Homo sapiens)
chain: MARRNPSPPLQRLRDWGHHHCPCHPGPGWLSTDGEHPAILCQRPVHSLTGGPNPGSCSAQKSLSQEAQGGGFPEPLQAWAGTGCSDSFLSPTSSLLPAALLSLPVCHPDVTPYFIAVLLLLPHDPCPPFPPPFLPNPRALHGCLFLLTTAEQMGKDGRGYVPATIKMTVERGVWWYGQWVGQGLVVLICRKEGWHQPLVSHMYLLPSSRDQPLPTPELQMPTMVPSYDLGMAPDSSMSMQLGPDMVPQVYPPHSHSIPPYQGLSPEESVNVLSAFQEPHLQMPPSLGQMSLSFDQPHPQGLLPCQPQEHAVSSPDPLLCSDVTTVEDSCLSQPVTAFPQGTWIGEDIFPPLLPPTEQDLTKLLLEGQGESGGGSLGAQPLLQPSHYGQSGISMSHMDLRANPSW
B3: STAT6(A): known gene STAT6 (GenBank), referred to as STAT6(A) in this study (protein, UniProt P42226 2-847, looked up)
Signal transducer and …: SLWGLVSKMPPEKVQRLYVDFPQHLRHLLGDWLESQPWEFLVGSDAFCCNLASALLSDTVQHLQASVGEQGEGSTILQHISTLESIYQRDPLKLVATFRQILQGEKKAVMEQFRHLPMPFHWKQEELKFKTGLRRLQHRVGEIHLLREALQKGAEAGQVSLHSLIETPANGTGPSEALAMLLQETTGELEAAKALVLKRIQIWKRQQQLAGNGAPFEESLAPLQERCESLVDIYSQLQQEVGAAGGELEPKTRASLTGRLDEVLRTLVTSCFLVEKQPPQVLKTQTKFQAGVRFLLGLRFLGAPAKPPLVRADMVTEKQARELSVPQGPGAGAESTGEIINNTVPLENSIPGNCCSALFKNLLLKKIKRCERKGTESVTEEKCAVLFSASFTLGPGKLPIQLQALSLPLVVIVHGNQDNNAKATILWDNAFSEMDRVPFVVAERVPWEKMCETLNLKFMAEVGTNRGLLPEHFLFLAQKIFNDNSLSMEAFQHRSVSWSQFNKEILLGRGFTFWQWFDGVLDLTKRCLRSYWSDRLIIGFISKQYVTSLLLNEPDGTFLLRFSDSEIGGITIAHVIRGQDGSPQIENIQPFSAKDLSIRSLGDRIRDLAQLKNLYPKKPKDEAFRSHYKPEQMGKDGRGYVPATIKMTVERDQPLPTPELQMPTMVPSYDLGMAPDSSMSMQLGPDMVPQVYPPHSHSIPPYQGLSPEESVNVLSAFQEPHLQMPPSLGQMSLPFDQPHPQGLLPCQPQEHAVSSPDPLLCSDVTMVEDSCLSQPVTAFPQGTWIGEDIFPPLLPPTEQDLTKLLLEGQGESGGGSLGAQPLLQPSHYGQSGISMSHMDLRANPSW

Tests used:
[1] = tested on: THP-1 cells; assay: Western blot of cytokine protein levels in transfected THP-1 cells (FIG. 6d); type: cell-based, human; details: overexpression in THP-1 cells
Description: (§1) Since both LITAF and STAT6(B) were found in the nucleus (FIG. 5), it was further investigated whether they act separately or in concert in mediating activation of TNF-α. While studying the complex, a cytokine array was employed to look at effects on other cytokines (FIG. 6a-6c.). The assay was preformed as follows. Using an empty vector as a control (FIG. 6b1), DNA of LITAF (full length, FIG. 6b2), STAT6(B) (full length; FIG. 6b3) or both full length of LITAF+STAT6(B) (FIG. 6b4), respectively, was transfected or co-transfected into THP-1 cells. Conditioned medium from each treated cell type was then prepared and incubated with membranes containing an array of 44 human protein cytokine antibodies (FIG. 6a). Autoradiographs were scanned, and the density of each cytokine at the corresponding position was determined. […] The relative intensities of each cytokine were normalized to control spots on the same membrane. Major increases or decreases among cytokines are represented graphically in FIG. 6c. […] In order to confirm these findings at the protein level we selected the four most strongly affected cytokines, IL-1α, IL-10, MCP-2 and RANTES and, under the same experimental conditions, measured their protein levels by Western blots.

[2] = tested on: MCP-1 promoter; assay: Luciferase assay of MCP-1 promoter activity after transient transfection (FIG. 16); type: cell-based
Description: To show this hypothesis, monocyte chemoattractant protein-1 (MCP-1), an important component of the inflammatory process, is selected to determine whether its LPS-triggered transcriptional regulation parallels observations for TNF. Recent studies have shown that the MCP-1 promoter activity can be regulated by NF-KB, STAT1, CEB/P homologous protein (CHOP), heme oxygenase-1 (HO-1) or activated protein C (APC) (Kim, et al, Clin Exp Immunol, 140:450-460, 2005; Jaruga, et al., Am J Physiol Gastrointest Liver Physiol, 287:G471-479, 2004, Abraham, et al., J Neuroimmunol, 160:219-221, 2005; Kanakiriya, et al., Am J Physiol Renal Physiol, 284:F:546-554, 2003). However, the precise LPS signaling pathways leading to MCP-1 induction have not been fully identified. In Examples 1-3, above, the regulation of LPS-induced inflammatory cytokine expression was shown. […] Thus, CTCCC represents a specific sequence in cytokine promoters to which LITAF binds for activity. […] Thus, short peptides with amino acids designed and synthesized based on the potential binding domain of LITAF and STAT6(B) jointly enhance MCP-1 promoter activity.

[3] = tested on: VEGF promoter; assay: VEGF promoter activity / VEGF expression in transfected U2OS cells; type: cell-based, human; details: transient transfection into U2OS cells with pcVEGF or pEVEGF
Description: To determine that this activation occurred at the transcriptional level, VEGF promoter activity assays were performed. A full length VEGF sequence, with or without its enhancer element (−2040˜+1), named pcVEGF or pEVEGF, was cloned into pcDNA3 plasmid. The cloned DNA with LITAF and/or STAT6(B) DNAs were transiently co-transfected into U2OS cells as described in FIG. 11a.

[4] = tested on: THP-1 cells; assay: Human cytokine antibody array of conditioned medium from transfected THP-1 cells; type: cell-based; details: single transfection
Description: as §1

[5] = tested on: TNF-α promoter; assay: TNF-α promoter luciferase assay in transfected U2OS cells; type: cell-based, human; details: transfection alone
Description: In order to characterize the functional importance of LITAF in the LITAF/STAT6(B) complex, the effect of the complex was examined, with and without silenced LITAF, on TNF-α promoter activity. U2OS cells containing the TNF-promoter linked to luciferase were transiently transfected with LITAF alone, STAT6(B) alone, or both DNAs as described. TNF-α promoter activity was analyzed via luciferase activity. […] The TNF-α concentrations in the supernatants of these transfected THP-1 cells was also measured. […] They further indicate that LITAF might play a leading role in cytokine regulation after the LITAF-STAT6(B) complex translocates to the nucleus in the cells.

[6] = tested on: Porcine aortic endothelial (PAE) cells expressing VEGFR-2 spheroids; assay: In vitro angiogenesis/tubulogenesis assay with supernatants of transfected THP-1 cells; type: cell-based; details: supernatant from transfected THP-1 cells, 2 days
Description: In Vitro Angiogenesis/Tubulogenesis assay of VEGF. To expand the observations that STAT6(B) is a potent stimulator of VEGF, and that the LITAF-STAT6(B) complex is inhibitory, culture supernatant fluids of LITAF-, STAT6(B)- or LITAF-STAT6(B)-transfected THP1 cells were tested in an in vitro angiogenesis/tubulogenesis assay. The assay was preformed as follows. Porcine aortic endothelial (PAE) cells expressing VEGFR-2 spheroids were generated as described in the art (Mayer and Rahimi, Ann. NY Acad. Sci, 995:200-207, 2003). A defined number of cells were suspended in DMEM containing 1% fetal bovine serum and 0-0.24% (w/v) carboxymethylcellulose (4000 centipoise) in non-adherent round-bottom 96-well plates under standard cell culture conditions. After 24 hours all cells formed one single spheroid per well (about 750 cells/spheroid). Spheroids were cultured for 2 days before using them in the in vitro angiogenesis assay in the following manner Spheroids containing about 750 cells were embedded in collagen gels. Eight volumes of collagen were mixed with 1 volume of 10×HEPES-buffered saline solution containing 10% 10×DMEM with phenol red. […]
It was determined whether VEGF, induced by STAT6(B), was active and capable of inducing angiogenesis and that the LITAF-STAT6(B) complex effect would inhibit this activity. […]

MCP-1 promoter activity / MCP-1 expression [2]	Molecule	protein levels of IL-1α, IL-10, MCP-2 and RANTES by Western blot [1]	VEGF gene expression / transcription [3]	effect on IL-1α (cytokine array) [4]	effect on TNF-α (cytokine array) [4]	TNF-α promoter luciferase activity [5]	in vitro angiogenesis/tubulogenesis [6]	effect on GRO (cytokine array) [4]	effect on IL-10 (cytokine array) [4]	effect on RANTES (cytokine array) [4]
significantly up-regulated	B1	not altered	did not have any effect	modestly up-regulated	modestly up-regulated	–	–	–	–	–
significantly up-regulated	B2	modest induction of all except MCP-2	significantly upregulated	up-regulated	–	did not substantially change	stimulated	up-regulated	up-regulated	up-regulated
–	B3	not altered	–	–	–	–	–	–	–	–
